Data taken from the RNAGym collection of RNA variant scans (doi:10.7554/elife.80360).

B1: HDV Ribozyme (parent)
chain: GGCCGGCAUGGUCCCAGCCUCCUCGCUGGCGCCGGCUGGGCAACAUUCCGAGGGGACCGUCCCCUCGGUAAUGGCGAAUGGGACCCA

Variants of: B1
Test: self-cleavage, relative activity (ratio to wild type); higher = more cleavage; co-transcriptional

Row | Variant | self-cleavage
1 | G17A G55C | 0.742
2 | G6A C22U | 0.4
3 | C84U C86U | 0.604
4 | C4U C62G | 0.151
5 | G50A C85U | 0.938
6 | A8G G31U | 0.587
7 | A16G A45U | 0.712
8 | A43G C63U | 0.615
9 | A45G A70G | 0.997
10 | G10A U12A | 0.0733
11 | C41A G67C | 0.525
12 | C18U A77C | 0.342
13 | C24G G39U | 0.0314
14 | C48A C63A | 0.816
15 | A56C G59U | 0.848
16 | C4A G76C | 0.253
17 | A8C A43G | 0.151
18 | C3G C63A | 0.575
19 | C26G G76A | 0.914
20 | C62G C66G | 0.249
21 | G25C A42G | 0
22 | C7G C15G | 0
23 | C7G C15A | 0
24 | C36U U60A | 0.727

Row | Variant | self-cleavage
25 | G2A | 0.2
26 | A42G C49G | 0.358
27 | G53C A70C | 0.653
28 | C21G G50A | 0
29 | G50A C61A | 0.875
30 | C24G A45G | 0.222
31 | G55U A83U | 0.409
32 | G39A A70U | 0.496
33 | C24U G73A | 0.188
34 | C22A C85G | 0.219
35 | G6A C18A | 0
36 | A42C G54C | 0.269
37 | G74A A78G | 0.111
38 | G28U G74A | 0.0528
39 | G5A C61A | 0.0573
40 | U60A U72C | 0.415
41 | C48U G59U | 1.06
42 | C14U U65G | 0.997
43 | G29U U46C | 0
44 | G35C A78U | 0.0475
45 | U20C U60C | 0.0978
46 | U12C U47A | 0.289
47 | C13G G73U | 0.0361
48 | C64G G68U | 0.136

Row | Variant | self-cleavage
49 | G40C G50A | 0.219
50 | G31C G52C | 0.277
51 | A16C U46C | 0.511
52 | G67A C86A | 0.985
53 | G53C A78G | 0.554
54 | C7G G59C | 0.404
55 | G31C C57G | 0.291
56 | G2C C41G | 0.103
57 | C21U A83G | 0.124
58 | C32A U47A | 0.322
59 | C24G G59C | 0.0923
60 | C22A G31U | 0.0594
61 | C63U U79A | 0.997
62 | C19U U23A | 0.129
63 | G17A C30G | 0.631
64 | U23C C57G | 0.6
65 | A51G U79A | 0.675
66 | C32A G54C | 0.356
67 | C4A A51C | 0.277
68 | G34A A42C | 0.0354
69 | G17C G68U | 0.425
70 | G73U C85A | 0.397
71 | C36U U79G | 0.325
72 | C36A G55A | 0.188

Row | Variant | self-cleavage
73 | C3G A70G | 0.475
74 | C3A C86U | 0.745
75 | C32U G82A | 0.354
76 | A8G G10U | 0.431
77 | U23C C36G | 0.125
78 | U20A G74A | 0
79 | G40U C57G | 0.712
80 | G59C C66G | 1.14
81 | C3U G76U | 0.973
82 | C22A G29C | 0.0449
83 | G40C A87C | 0.245
84 | C24A G80C | 0.262
85 | C22U A77C | 0.141
86 | C26U C48U | 1.01
87 | C15G C44U | 0.434
88 | C4U U20G | 0
89 | C24U C57A | 0.831
90 | G17A G68U | 0.659
91 | C21G C57U | 0.138
92 | U60A A70U | 1.06
93 | G38U G54U | 0.325
94 | C64A | 0.908
95 | G40U G74A | 0.415
96 | A42U G68C | 0.397

Row | Variant | self-cleavage
97 | U27G U47G | 1.27
98 | U9C U72G | 0.582
99 | G2C G35C | 0.124
100 | G11C G40C | 0.0475
101 | C26A A78U | 0.269
102 | C44G G80C | 0.0405
103 | C66A G73U | 0.171
104 | G59U G73U | 0.516
105 | C19A G73C | 0.058
106 | G34A A51G | 0.0504
107 | C33A C85U | 0.277
108 | U23G A51G | 0.8
109 | G11U U65C | 0.19
110 | C14A A51U | 0.779
111 | U20A G29U | 0.0875
112 | G25U A45G | 0.401
113 | G29C U79G | 0
114 | C13A C86A | 0.492
115 | U37G A71C | 0.0831
116 | G28A U60A | 0.178
117 | U12C C32G | 0
118 | G5A C36U | 0.18
119 | A8C G29U | 0.151
120 | G34U C63A | 0.164

Row | Variant | self-cleavage
121 | G40U G76A | 0.789
122 | A77C G82U | 0.0755
123 | A16G G35C | 0.138
124 | C26U G74C | 0.519
125 | G11U C22A | 0.0179
126 | C22A U79A | 0.131
127 | C13U U60C | 0.831
128 | G38C G54C | 0.237
129 | C21G G40A | 0.0346
130 | C30G C62A | 0.122
131 | C22U G31C | 0
132 | C4U G40A | 0.604
133 | C33U U60A | 0.696
134 | C57A A71C | 0.866
135 | G40C C63A | 0.475
136 | C21U U69C | 0.138
137 | C41G G81A | 0.188
138 | C15U G35U | 0.252
139 | C22A C58U | 0.332
140 | G25A A56U | 0.111
141 | U46G A71G | 0.772
142 | G67U G73A | 0.451
143 | G38C C62A | 0.354
144 | C36A A77U | 0.217

Row | Variant | self-cleavage
145 | C14G G54U | 0.776
146 | C85G A87G | 0.919
147 | G73C A77U | 0.151
148 | G38A A45C | 0.0804
149 | C3U C86G | 0.848
150 | U79G A87G | 0.669
151 | C26G C30U | 0.415
152 | C18A U60A | 0.135
153 | C30A A56G | 0.529
154 | G10U A56U | 0.893
155 | U72C G82U | 0.145
156 | G54C C61U | 1.01
157 | G35C C58A | 0.175
158 | G52U G73U | 0.305
159 | C15G G34A | 0.237
160 | G10A U69A | 0.677
161 | C32G C61A | 0.121
162 | U20G G54C | 0.571
163 | C32G G74A | 0.126
164 | G34C G52U | 0.155
165 | G38U A77G | 0.0923
166 | U47G C86U | 1.11
167 | G31A C64A | 0.359
